Test results: PMC12631472, “Low-Cost Label-Free Electrochemical Aptasensor for Dual Detection of Dengue and Zika Using Fluorine-Doped Tin Oxide Modified with APTES and Gold Nanoparticles”

Target: Dengue NS1 (NS1-D) (Dengue virus serotype 4, UniProt P09866 775-1126)
Experiment: electrochemical impedance spectroscopy; PBS; 1000 ng/mL NS1-D; dRct 114.1 ± 0.2%; LoD 0.21 ng/mL; PBS or commercial human serum; aptamer immobilized at 4 °C in 0.8 M PB, 1.0 M NaCl, 5 mM MgCl2, 1 mM EDTA, pH 7; aptamer:total thiol 1:250; assay temperature not stated
Conditions: protein: commercial; chain copies: 2

Dengue NS1 (NS1-D), sequence (P09866 775-1126): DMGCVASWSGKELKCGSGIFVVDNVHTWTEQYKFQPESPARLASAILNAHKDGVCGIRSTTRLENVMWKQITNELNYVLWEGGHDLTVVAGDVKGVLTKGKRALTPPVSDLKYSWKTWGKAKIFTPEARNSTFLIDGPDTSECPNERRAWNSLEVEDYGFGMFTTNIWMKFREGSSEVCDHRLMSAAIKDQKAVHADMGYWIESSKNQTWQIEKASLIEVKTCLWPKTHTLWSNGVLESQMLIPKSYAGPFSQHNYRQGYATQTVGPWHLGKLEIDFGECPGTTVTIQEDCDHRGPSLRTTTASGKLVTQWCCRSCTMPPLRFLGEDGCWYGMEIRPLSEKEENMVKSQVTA

B1: NS1 DNA aptamer (structured_DNA)
DNA: TTTTAGCGGATCCGATGGGTGGGGGGGTGGGTAGGATCCGCG
modifications: 5'-HS-(CH2)6 thiol
binding result: binds
